Consider three molecules from US20070274981A1 (Eli Lilly, published 2007).

Assay [1] addresses T1, Recombinant FGFR-1(IIIb) (UniProt P11362-19 22-376).
T1 construct: Bought (R&D Systems); also called FGFR-1b; FGFR-(IIIb); not shown: Fc-tag of the recombinant receptor (detected with anti-human Fc)
T1 sequence (looked up): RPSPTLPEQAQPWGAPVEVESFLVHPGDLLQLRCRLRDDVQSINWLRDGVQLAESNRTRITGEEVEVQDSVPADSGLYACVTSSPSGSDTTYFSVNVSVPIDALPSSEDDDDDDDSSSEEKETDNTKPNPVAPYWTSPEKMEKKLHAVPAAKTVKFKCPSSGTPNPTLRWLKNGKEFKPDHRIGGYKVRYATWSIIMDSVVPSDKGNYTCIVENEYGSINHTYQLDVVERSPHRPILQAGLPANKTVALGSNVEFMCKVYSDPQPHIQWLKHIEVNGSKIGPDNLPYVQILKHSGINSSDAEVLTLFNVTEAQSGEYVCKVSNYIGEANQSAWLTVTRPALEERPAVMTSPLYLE
The assay can be described thus: BiaCore 3000 biosensor, binding kinetics.

Assay [2] addresses T2, Recombinant FGFR-4 (UniProt P22455 22-369).
T2 construct: Bought (R&D Systems); also called FGFR-4(IIIc)
T2 sequence (looked up): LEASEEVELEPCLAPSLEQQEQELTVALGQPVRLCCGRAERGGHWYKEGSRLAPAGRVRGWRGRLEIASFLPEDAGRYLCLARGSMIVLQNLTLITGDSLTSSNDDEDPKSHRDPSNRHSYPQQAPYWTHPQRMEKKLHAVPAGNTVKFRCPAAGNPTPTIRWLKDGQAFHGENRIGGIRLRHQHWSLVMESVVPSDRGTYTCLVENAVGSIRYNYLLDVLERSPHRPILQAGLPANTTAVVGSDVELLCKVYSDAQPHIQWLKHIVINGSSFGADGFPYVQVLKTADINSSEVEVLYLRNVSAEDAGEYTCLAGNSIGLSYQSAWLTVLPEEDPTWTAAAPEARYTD
As to the kind of experiment: BiaCore 3000 biosensor, binding kinetics.

The target in assay [3] is T1, Recombinant FGFR-1(IIIb). As to the kind of experiment: ELISA blocking assay: FGFR-1(IIIb) binding to immobilised FGF-2. The method, then:
(§1) Recombinant FGFs (R&D systems, Minneapolis, Minn.) were coated on Immulon® 2B microtiter plates (ThermoLab Systems, Franklin, Mass.) at concentrations of 0.5-2 μg/ml for 2 hrs. The plates were then washed with 0.2% Tween20/PBS, and blocked with 5% milk/PBS for 2 hrs before use. Phage or antibody was serially diluted with 5 μg/ml heparin (Sigma, St Louis, Mo.), 5% milk, PBS. Recombinant FGFR-1 (R&D Systems) was then added to a final concentration of 1 μg/ml. […] Plates were then washed 3 times with 0.2% Tween20/PBS. The bound receptors were detected using an anti-human Fc monoclonal antibody coupled with HRP (Pierce Biotechnology Inc., Rockford, Ill.) solution prepared according to supplier's instructions. Data were presented as % inhibition of ligand-receptor binding of the controls.
(§2) The blocking activities to fully active, native FGFR-1 receptor were determined in the cell-based blocking assay.
(In general: In an ELISA, binding on a coated surface is turned into a signal by an enzyme label.)

For assay [4], the target named is T1, Recombinant FGFR-1(IIIb). As to the kind of experiment: kinetic analysis (BiaCore).
Assay [5] concerns the target T1, Recombinant FGFR-1(IIIb). The assay can be described thus: ELISA blocking assay: FGFR-1(IIIb) binding to immobilised FGF-1. On the procedure: as §1, §2
Assay [6] has as its target T1, Recombinant FGFR-1(IIIb). As to the kind of experiment: BiaCore analyses.
The target of assay [7] is T2, Recombinant FGFR-4. The assay can be described thus: kinetic analysis (BiaCore).

B1: FR1-H7 (antibody, V domains shown)
VH: EVQLVQSGAEVKKPGASVKVSCKVSGYTFTDYYMHWVQQAPGKGLEWMGLVDPEDGETIYAEKFQGRVTITADTSTDTAYMELSSLRSEDTAVYYCARDDYMDVWGKGTLVTVSS
VL: ETTLTQSPDTLSLSPGEGATLSCRASQSVSGSALAWYQQKPGQAPRLLIYDASSRATGVPDRFSGSGSGADFSLTISRLEPEDFAVYSCQQYGSSPLTFGPGTKVDVKR
notes: also called FR1-H7 antibody
As usually defined, the Kd is the concentration at which binding is half-saturated. By IC50 is commonly meant the midpoint of a concentration-inhibition curve. For the molecule B1, the values for the Kd in the assay with Recombinant FGFR-1(IIIb) [1], with Recombinant FGFR-4 [2] and with Recombinant FGFR-1(IIIb) [4] were 0.06 nM, 200 nM and approximately 0.05 nM, respectively. Further, the IC50 is 2 to 5 nM with Recombinant FGFR-1(IIIb) [3] and approximately 5 nM with Recombinant FGFR-1(IIIb) [5].

B2: FR1-4H (antibody, V domains shown)
VH: QVQLVEFGPGLVKPSETLSLTCTVSGGSISSYYWSWIRQPPGKGLEWIGYIYYSGSTNYNPSLKSRVAISVDTSKNQFSLKLSSVTAADTAVYYCAREYYYDSSGYYFYAFDIWGQGTTVTVSS
VL: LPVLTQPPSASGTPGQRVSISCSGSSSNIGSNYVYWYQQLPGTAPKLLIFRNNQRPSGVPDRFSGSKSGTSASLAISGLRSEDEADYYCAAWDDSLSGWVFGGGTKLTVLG
notes: Isolated by the same procedure as FR1-H7 and FR1-A1
As to B2, the Kd in the assay with Recombinant FGFR-1(IIIb) [6] worked out at 1.1 nM.

B3: FR1-A1 (antibody, V domains shown)
VH: QVQLVQSGAEVKKPGSSVKVSCKASGQTFTGYYMHWVRQAPGQGLEWMGRIIPILGIANYAQKFQGRVTITADKSTSTAYMELSSLRSEDTAVYYCARGGDLGGMDVWGQG
VL: EIVLTQSPLSLPVTPGEPASISCRSSQSLRHSNGYNYLDWYLQKPGQSPQLLIYLASNRASGVPDRFSGSGSGTDFTLKISRVEAEDVGVYYCMQALQIPPTFGPGTKVDIKR
notes: also called FR1-A1 antibody
Turning to B3, the Kd with Recombinant FGFR-4 [7] was 90 nM.
